# Results reported in patent publication US20190382488A1 (IMAGINAB, published 2019).
# Changes are numbered by the printed parent chain.
# B1: IAb_Mb2a_CD8 (other)
# chain: EVQLVESGGGLVQPGGSLRLSCAASGFNIKDTYIHFVRQAPGKGLEWIGRIDPANDNTLYASKFQGKATISADTSKNTAYLQMNSLRAGDTAVYYCGRGYGYYVFDHWGQGTLVTVSSGSTSGGGSGGGSGGGGSSDVQITQSPSSLSASVGDRVTITCRTSRSISQYLAWYQQKPGKVPKLLIYSGSTLQSGVPSRFSGSGSGTDFTLTISSLQPEDVATYYCQQHNENPLTFGGGTKVEIKEPKSCDKTHTCPPCGGGSSGGGSGGQPREPQVYTLPPSRDELTKNQVSLTCLVKGFYPSDIAVEWESNGQPENNYKTTPPVLDSDGSFFLYSKLTVDKSRWQQGNVFSCSVMHEALHNHYTQKSLSLSPGK
# notes: also called variant 2a
# B2: IAb_Cys-Db3b_CD8-Df (other)
# chain: DVQITQSPSSLSASVGDRVTITCRTSRSISQYLAWYQQKPGKVPKLLIYSGSTLQSGVPSRFSGSGSGTDFTLTISSLQPEDVATYYCQQHNENPLTFGGGTKVEIKGGGSGGGGEVQLVESGGGLVQPGGSLRLSCAASGFNIKDTYIHFVRQAPGKGLEWIGRIDPANDNTLYASKFQGKATISADTSKNTAYLQMNSLRAEDTAVYYCGRGYGYYVFDHWGQGTLVTVSSGGC
# modifications: Desferoxamine (Df) conjugated to the C-terminal cysteine
# notes: also called Df-labeled cys-diabody
# B3: IAb_Mb1d_CD8 (other)
# chain: DVQITQSPSSLSASVGDRVTITCRTSRSISQYLAWYQQKPGKVPKLLIYSGSTLQSGVPSRFSGSGSGTDFTLTISSLQPEDVATYYCQQHNENPLTFGGGTKVEIKGSTSGGGSGGGSGGGGSSQVQLVQSGAEVKKPGATVKISCKVSGFNIKDTYIHFVQQAPGKGLEWIGRIDPANDNTLYASKFQGKATITADTSTDTAYMELSSLRSEDTAVYYCGRGYGYYVFDHWGQGTLVTVSEPKSCDKTHTCPPCGGGSSGGGSGGQPREPQVYTLPPSRDELTKNQVSLTCLVKGFYPSDIAVEWESNGQPENNYKTTPPVLDSDGSFFLYSKLTVDKSRWQQGNVFSCSVMHEALHNHYTQKSLSLSPGK
# notes: also called variant 1d
# B4: Humanized IAb_Mb2_CD8 (other)
# chain: QVQLVQSGAEVKKPGATVKISCKVSGFNIKDTYIHWVQQAPGKGLEWMGRIDPANDNTLYASKFQGRVTITADTSTDTAYMELSSLRSEDTAVYYCARGYGYYVFDHWGQGTLVTVSSGSTSGGGSGGGSGGGGSSDVQITQSPSSLSASVGDRVTITCRTSRSISQYLAWYQQKPGKVPKLLIYSGSTLQSGVPSRFSGSGSGTDFTLTISSLQPEDVATYYCQQHNENPLTFGGGTKVEIKEPKSCDKTHTCPPCGGGSSGGGSGGQPREPQVYTLPPSRDELTKNQVSLTCLVKGFYPSDIAVEWESNGQPENNYKTTPPVLDSDGSFFLYSKLTVDKSRWQQGNVFSCSVMHEALHNHYTQKSLSLSPGK
# notes: Minibody homodimer, tested as transfection supernatant; also called humanized OKT8 minibody VH-VL; humanized variants
# B5: IAb_Mb2c_CD8 (other)
# chain: B4 chain with W36F, M48I, R67K, V68A, E89G, A97G
# notes: also called variant 2c
# B6: IAb_M1b_CD8 IgG2 NH (other)
# chain: DVQITQSPSSLSASVGDRVTITCRTSRSISQYLAWYQQKPGKVPKLLIYSGSTLQSGVPSRFSGSGSGTDFTLTISSLQPEDVATYYCQQHNENPLTFGGGTKVEIKGSTSGGGSGGGSGGGGSSEVQLVESGGGLVQPGGSLRLSCAASGFNIKDTYIHFVRQAPGKGLEWIGRIDPANDNTLYASKFQGKATISADTSKNTAYLQMNSLRAEDTAVYYCGRGYGYYVFDHWGQGTLVTVSSERKCCVECPPCPAPPVAGPGQPREPQVYTLPPSREEMTKNQVSLTCLVKGFYPSDIAVEWESNGQPENNYKTTPPMLDSDGSFFLYSKLTVDKSRWQQGNVFSCSVMHEALHNHYTQKSLSLSPGK
# notes: Minibody homodimer with native IgG2 hinge and IgG2 CH3
# B7: IAb_M1b_CD8 IgG2 EH (other)
# chain: DVQITQSPSSLSASVGDRVTITCRTSRSISQYLAWYQQKPGKVPKLLIYSGSTLQSGVPSRFSGSGSGTDFTLTISSLQPEDVATYYCQQHNENPLTFGGGTKVEIKGSTSGGGSGGGSGGGGSSEVQLVESGGGLVQPGGSLRLSCAASGFNIKDTYIHFVRQAPGKGLEWIGRIDPANDNTLYASKFQGKATISADTSKNTAYLQMNSLRAEDTAVYYCGRGYGYYVFDHWGQGTLVTVSSERKCCVECPPCPGGGSSGGGSGGQPREPQVYTLPPSREEMTKNQVSLTCLVKGFYPSDIAVEWESNGQPENNYKTTPPMLDSDGSFFLYSKLTVDKSRWQQGNVFSCSVMHEALHNHYTQKSLSLSPGK
# notes: Minibody homodimer with artificial IgG2 hinge-extension and IgG2 CH3
# B8: IAb_Mb2d_CD8 (other)
# chain: QVQLVQSGAEVKKPGATVKISCKVSGFNIKDTYIHFVQQAPGKGLEWIGRIDPANDNTLYASKFQGKATITADTSTDTAYMELSSLRSEDTAVYYCGRGYGYYVFDHWGQGTLVTVSGSTSGGGSGGGSGGGGSSDVQITQSPSSLSASVGDRVTITCRTSRSISQYLAWYQQKPGKVPKLLIYSGSTLQSGVPSRFSGSGSGTDFTLTISSLQPEDVATYYCQQHNENPLTFGGGTKVEIKEPKSCDKTHTCPPCGGGSSGGGSGGQPREPQVYTLPPSRDELTKNQVSLTCLVKGFYPSDIAVEWESNGQPENNYKTTPPVLDSDGSFFLYSKLTVDKSRWQQGNVFSCSVMHEALHNHYTQKSLSLSPGK
# notes: also called variant 2d
# B9: Humanized IAb_Mb1_CD8 (other)
# chain: DVQITQSPSSLSASVGDRVTITCRTSRSISQYLAWYQQKPGKVPKLLIYSGSTLQSGVPSRFSGSGSGTDFTLTISSLQPEDVATYYCQQHNENPLTFGGGTKVEIKGSTSGGGSGGGSGGGGSSQVQLVQSGAEVKKPGATVKISCKVSGFNIKDTYIHWVQQAPGKGLEWMGRIDPANDNTLYASKFQGRVTITADTSTDTAYMELSSLRSEDTAVYYCARGYGYYVFDHWGQGTLVTVSSEPKSCDKTHTCPPCGGGSSGGGSGGQPREPQVYTLPPSRDELTKNQVSLTCLVKGFYPSDIAVEWESNGQPENNYKTTPPVLDSDGSFFLYSKLTVDKSRWQQGNVFSCSVMHEALHNHYTQKSLSLSPGK
# notes: Minibody homodimer, tested as transfection supernatant; also called humanized OKT8 minibody VL-VH; humanized variants
# B10: IAb_Mb1a_CD8 (other)
# chain: DVQITQSPSSLSASVGDRVTITCRTSRSISQYLAWYQQKPGKVPKLLIYSGSTLQSGVPSRFSGSGSGTDFTLTISSLQPEDVATYYCQQHNENPLTFGGGTKVEIKGSTSGGGSGGGSGGGGSSEVQLVESGGGLVQPGGSLRLSCAASGFNIKDTYIHFVRQAPGKGLEWIGRIDPANDNTLYASKFQGKATISADTSKNTAYLQMNSLRAGDTAVYYCGRGYGYYVFDHWGQGTLVTVSSEPKSCDKTHTCPPCGGGSSGGGSGGQPREPQVYTLPPSRDELTKNQVSLTCLVKGFYPSDIAVEWESNGQPENNYKTTPPVLDSDGSFFLYSKLTVDKSRWQQGNVFSCSVMHEALHNHYTQKSLSLSPGK
# notes: also called variant 1a
# Key:
# [1] = biological target: T1, recombinant human CD8 (rhCD8) (human, UniProt P01732 22-182); assay: SPR (BIAcore), minibody captured via anti-human IgG Fc, hCD8 analyte at 50 nM
# T1 construct: Soluble purified recombinant protein; also called purified recombinant human CD8 protein; soluble CD8
# Text: Surface plasma resonance (SPR) was used to determine the binding affinity for all the IAb_Mb_CD8 variants to recombinant human CD8 (Table 8.0). The minibody protein in the supernatant was captured on to the BIAcore chip using an anti-human IgG (Fc-specific) antibody. The amount of minibody captured on the chip was normalized to enable a direct comparison of binding affinity between the variants as a kinetic “scouting” experiment to rank affinities. The rhCD8 protein was passed over the captured minibody protein to measure binding.
# Table 8.0 summarizes the measured association (ka), dissociation (kd), and kD constants for the IAb_Mb_CD8 variants binding to recombinant hCD8. The variants were captured on a BIAcore chip using anti-human Fc-specific IgG antibody.
# cell-surface human CD8 [2] = biological target: T2, cell-surface human CD8 (human, UniProt P01732 22-235); assay: flow cytometry on HPB-ALL cells, Protein L-biotin then streptavidin-APC
# T2 construct: the cell is named under assay; also called cellular human CD8; CD8 on PC3-CD8 cells
# Experimental: Flow cytometry analysis of cys-diabody (+/−C-terminal cysteine conjugation to Desferoxamine) binding to cell-surface human CD8 on HPB-ALL cells was performed. Cells were stained with respective concentrations of cys-diabody, washed, stained with a secondary Protein L conjugated to Biotin, washed, then stained with a tertiary streptavidin-APC. Analysis was performed with 10,000 events/point in triplicate for each concentration. The results are shown in graph format in FIG. 30C. The graph presents the mean fluorescence intensity (MFI) vs. the log of the concentration (nM). Error bars represent the standard error. The data indicates an EC₅₀ of 0.04 nM and 0.06 nM.
# cell-surface human CD8 [3] = biological target: T2, cell-surface human CD8; assay: flow cytometry on CD8+ cells, transfection supernatant neat to 1:81, anti-human IgG (Fc-specific)-APC
# Experimental: FIGS. 17A-17D display the results of the flow cytometry analysis of the IAb_Mb_CD8 variants. All histograms show allophycocyanin (APC) signal vs. counts. Supernatants from transfection of the variants at different dilutions were incubated with CD8+ cells. Cells were washed and subsequently stained with a secondary anti-human IgG (Fc-specific) APC conjugated antibody. 1×10⁵ cells were stained per point and analysis was performed with 10,000 events/point.
# cell-surface human CD8 [4] = biological target: T2, cell-surface human CD8; assay: flow cytometry, HPB-ALL cells
# Experimental: (§1) Flow cytometry analysis of minibodies binding to cell-surface human CD8 on HPB-ALL cells was performed. Cells were stained with respective concentrations of minibody, washed, and then stained with a secondary anti-human IgG (Fc-specific) APC-conjugated antibody. Analysis was performed with 10,000 events/point in triplicate for each concentration. The results are shown in graph format in FIG. 29A. The graph presents the normalized mean fluorescence intensity (MFI) vs. the log of the concentration (nM). Error bars represent the standard error. The data indicates an EC₅₀ of 0.15 nM and 0.19 nM.
# as §1, with “analysis of IgG2 minibodies binding” for “analysis of minibodies binding”, “in FIG. 29E. The graph” for “in FIG. 29A. The graph”, “EC₅₀ of 0.1 nM, 0.13 nM, and 0.08” for “EC₅₀ of 0.15 nM and 0.19”, “nM, and 0.08 nM.” for “nM and 0.19 nM.”
# cell-surface human CD8 [5] = biological target: T2, cell-surface human CD8; assay: flow cytometry on HPB-ALL cells, anti-human IgG (Fc-specific)-APC
# Experimental: as §1, with “analysis of IgG2 minibodies binding” for “analysis of minibodies binding”, “in FIG. 29E. The graph” for “in FIG. 29A. The graph”, “EC₅₀ of 0.1 nM, 0.13 nM, and 0.08” for “EC₅₀ of 0.15 nM and 0.19”, “nM, and 0.08 nM.” for “nM and 0.19 nM.”
# T2 sequence (P01732 22-235 limits assumed): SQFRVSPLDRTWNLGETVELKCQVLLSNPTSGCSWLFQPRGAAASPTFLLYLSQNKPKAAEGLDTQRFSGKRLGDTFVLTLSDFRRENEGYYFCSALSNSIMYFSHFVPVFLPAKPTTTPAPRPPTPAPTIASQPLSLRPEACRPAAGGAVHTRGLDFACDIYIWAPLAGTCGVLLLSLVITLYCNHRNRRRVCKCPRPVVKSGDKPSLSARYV
# T1 sequence (P01732 22-182 limits assumed): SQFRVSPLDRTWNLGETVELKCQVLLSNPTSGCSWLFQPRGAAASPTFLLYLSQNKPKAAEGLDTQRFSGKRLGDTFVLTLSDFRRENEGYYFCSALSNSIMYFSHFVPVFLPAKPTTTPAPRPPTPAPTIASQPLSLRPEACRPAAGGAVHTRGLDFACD
binder,measurement,setting,value
B1,Ka,[1],2.2e+08 M⁻¹
same,Kd,[1],4.6 nM
same,koff,[1],0.0022 s⁻¹
same,kon,[1],480000 M⁻¹ s⁻¹
B2,EC50,cell-surface human CD8 [2],0.06 nM
B3,Ka,[1],3.4e+08 M⁻¹
same,Kd,[1],2.9 nM
same,koff,[1],0.002 s⁻¹
same,kon,[1],700000 M⁻¹ s⁻¹
B4,binding result,cell-surface human CD8 [3],binds
B5,Ka,[1],2.2e+08 M⁻¹
same,Kd,[1],4.5 nM
same,koff,[1],0.0032 s⁻¹
same,kon,[1],720000 M⁻¹ s⁻¹
B6,EC50,cell-surface human CD8 [4],0.08 nM
same,EC50,cell-surface human CD8 [5],0.08 nM
B7,EC50,cell-surface human CD8 [4],0.13 nM
same,EC50,cell-surface human CD8 [5],0.13 nM
B8,Ka,[1],1.8e+08 M⁻¹
same,Kd,[1],5.5 nM
same,koff,[1],0.0029 s⁻¹
same,kon,[1],540000 M⁻¹ s⁻¹
B9,binding result,cell-surface human CD8 [3],binds
B10,Ka,[1],5.3e+08 M⁻¹
same,Kd,[1],1.9 nM
same,koff,[1],0.0012 s⁻¹
same,kon,[1],650000 M⁻¹ s⁻¹
